Measured values reported in patent US8420776 (US Dept. of Health and Human Services, dated 2013).

How the values were obtained:
[1] = biological target: N-terminal GFP fusion of gp78 residues 574-611 with the E2-m2 mutation (GFP-574-611E2-m2) (human, UniProt P42212 1-238 = GFP); assay: anti-GFP immunoprecipitation from HEK 293T cells, immunoblot for endogenous Ube2G2
[2] = biological target: T1, N-terminal GFP fusion of gp78 residues 574-611 (GFP-574-611) (human, UniProt P42212 1-238 = GFP); assay: co-immunoprecipitation with GFP fusion from HEK 293T cells
T1 construct: the vector encodes the enhanced variant; also called G2BD

B1: endogenous Ube2G2 of HEK 293T cells (enzyme)
chain: AGTALKRLMAEYKQLTLNPPEGIVAGPMNEENFFEWEALIMGPEDTCFEFGVFPAILSFPLDYPLSPPKMRFTCEMFHPNIYPDGRVCISILHAPGDDPMGYESSAERWSPVQSVEKILLSVVSMLAEPNDESGANVDASKMWRDDREQFYKIAKQIVQKSLGL
notes: Endogenous protein in cell lysate, detected with rabbit antiserum to residues 148-165; also called endogenous E2
Q: Does B1 bind [1]?
A: no binding

Q: Does B1 bind [2]?
A: binds
